Measurements as given in PMC9352680, “A comprehensive thermodynamic model for RNA binding by the Saccharomyces cerevisiae Pumilio protein PUF4”.

Biological target: T1, PUF4 RNA-binding domain (Saccharomyces cerevisiae, UniProt P25339 537-888)
T1 sequence: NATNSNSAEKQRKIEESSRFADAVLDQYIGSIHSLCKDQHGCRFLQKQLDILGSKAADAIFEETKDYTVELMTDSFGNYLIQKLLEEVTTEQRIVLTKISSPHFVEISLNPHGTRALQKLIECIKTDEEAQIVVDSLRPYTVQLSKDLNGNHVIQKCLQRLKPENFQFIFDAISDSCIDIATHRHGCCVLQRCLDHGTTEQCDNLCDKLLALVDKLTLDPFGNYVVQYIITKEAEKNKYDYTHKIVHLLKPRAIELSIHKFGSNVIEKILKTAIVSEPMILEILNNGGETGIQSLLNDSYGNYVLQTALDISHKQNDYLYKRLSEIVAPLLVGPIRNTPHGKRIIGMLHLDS
Assay: Mg; RNA-MaP; 20 mM Na-HEPES pH 7.4, 30 mM KOAc, 0.75 mM MgCl2, 0.1% Tween-20, 5% glycerol, 0.1 mg/mL BSA, 2 mM DTT; 25 C; 0.0125-409.6 nM protein
Conditions: tags: N-His6-TEV cleaved; C-SNAP kept, Cy3B-labelled; label: tethered on chip by stalled RNA polymerase

UCUCUUAUUGUAUAUAAUUCUCUU (ssRNA) [Id_ii_S1_P3E.2_K3.1_C3.2_[C-2A]_H3.1_A3.1_F3.1_T3.2_[T9A]_[A10T]] gave a Kd of 12.2 nM.

In the case of UCUCUUAUUGUAUAUAAAUCUCUU (ssRNA) [Id_ii_S1_P3E.2_K3.1_C3.2_[C-2A]_H3.1_A3.1_F3.1_T3.2_[T9A]], the Kd is reported as 13.9 nM.

UCUCUUAUUGUAUAUAUGUCUCUU (ssRNA) [Id_ii_S1_P3E.2_K3.1_C3.2_[C-2A]_H3.1_A3.1_F3.1_T3.2_[A10G]] showed a Kd of 12.3 nM.

In the case of UCUCUUAUUGUAUAUAUCUCUCUU (ssRNA) [Id_ii_S1_P3E.2_K3.1_C3.2_[C-2A]_H3.1_A3.1_F3.1_T3.2_[A10C]], the Kd is reported as 8.52 nM.

In the case of UCUCUUAUUGUAUAUAUUUCUCUU (ssRNA) [Id_ii_S1_P3E.2_K3.1_C3.2_[C-2A]_H3.1_A3.1_F3.1_T3.2_[A10T]], the Kd is reported as 9.49 nM.

With UCUCUUUAUGUAUUAUCUCUU (ssRNA) [Ib_S1_P4E.1_K4.1_C4.1_H4.1_[G2A]_[A4G]_A4.1_F4.1_T4.1] the Kd was 36 nM.

UCUCUUAUUGUAUAUAUAUCUCUU (ssRNA) [Id_ii_S1_P3E.2_K3.1_C3.2_[C-2A]_H3.1_A3.1_F3.1_T3.2] gave a Kd of 4.87 nM.

With UCUCUUCGUGUAUAUAGGUCUCUU (ssRNA) [Id_ii_S1_P3E.2_K3.1_C3.2_[T-1G]_H3.1_A3.1_F3.1_T3.2_[T9G]_[A10G]] the Kd was 9.62 nM.

For UCUCUUCGUGUAUAUAGUUCUCUU (ssRNA) [Id_ii_S1_P3E.2_K3.1_C3.2_[T-1G]_H3.1_A3.1_F3.1_T3.2_[T9G]_[A10T]], the Kd was 3.77 nM.

UCUCUUCGUGUAUAUACCUCUCUU (ssRNA) [Id_ii_S1_P3E.2_K3.1_C3.2_[T-1G]_H3.1_A3.1_F3.1_T3.2_[T9C]_[A10C]] was tested, and the Kd was 17.5 nM.

UCUCUUCGUGUAUAUAAUUCUCUU (ssRNA) [Id_ii_S1_P3E.2_K3.1_C3.2_[T-1G]_H3.1_A3.1_F3.1_T3.2_[T9A]_[A10T]] showed a Kd of 8.53 nM.

UCUCUUCGUGUAUAUAAAUCUCUU (ssRNA) [Id_ii_S1_P3E.2_K3.1_C3.2_[T-1G]_H3.1_A3.1_F3.1_T3.2_[T9A]] was tested, and the Kd was 11.9 nM.

For UCUCUUCGUGUAUAUAUCUCUCUU (ssRNA) [Id_ii_S1_P3E.2_K3.1_C3.2_[T-1G]_H3.1_A3.1_F3.1_T3.2_[A10C]], the Kd was 7.58 nM.

For UCUCUUCGUGUAUAUAUUUCUCUU (ssRNA) [Id_ii_S1_P3E.2_K3.1_C3.2_[T-1G]_H3.1_A3.1_F3.1_T3.2_[A10T]], the Kd was 8.56 nM.

For UCUCUUCGUGUAUAUAUAUCUCUU (ssRNA) [Id_ii_S1_P3E.2_K3.1_C3.2_[T-1G]_H3.1_A3.1_F3.1_T3.2], the Kd was 5.37 nM.

UCUCUUCCUGUAUAUAGUUCUCUU (ssRNA) [Id_ii_S1_P3E.2_K3.1_C3.2_[T-1C]_H3.1_A3.1_F3.1_T3.2_[T9G]_[A10T]] gave a Kd of 4.07 nM.

For UCUCUUUAUCUAUUAUCUCUU (ssRNA) [Ib_S1_P4E.1_K4.1_C4.1_H4.1_[G2A]_[A4C]_A4.1_F4.1_T4.1], the Kd was > 2300 nM.

In the case of UCUCUUCCUGUAUAUACGUCUCUU (ssRNA) [Id_ii_S1_P3E.2_K3.1_C3.2_[T-1C]_H3.1_A3.1_F3.1_T3.2_[T9C]_[A10G]], the Kd is reported as 17.4 nM.

With UCUCUUCCUGUAUAUACCUCUCUU (ssRNA) [Id_ii_S1_P3E.2_K3.1_C3.2_[T-1C]_H3.1_A3.1_F3.1_T3.2_[T9C]_[A10C]] the Kd was 24.3 nM.

With UCUCUUCCUGUAUAUACUUCUCUU (ssRNA) [Id_ii_S1_P3E.2_K3.1_C3.2_[T-1C]_H3.1_A3.1_F3.1_T3.2_[T9C]_[A10T]] the Kd was 6.95 nM.

UCUCUUCCUGUAUAUACAUCUCUU (ssRNA) [Id_ii_S1_P3E.2_K3.1_C3.2_[T-1C]_H3.1_A3.1_F3.1_T3.2_[T9C]] was tested, and the Kd was 17.7 nM.

With UCUCUUCCUGUAUAUAAGUCUCUU (ssRNA) [Id_ii_S1_P3E.2_K3.1_C3.2_[T-1C]_H3.1_A3.1_F3.1_T3.2_[T9A]_[A10G]] the Kd was 12.9 nM.

Binder UCUCUUCCUGUAUAUAACUCUCUU (ssRNA) [Id_ii_S1_P3E.2_K3.1_C3.2_[T-1C]_H3.1_A3.1_F3.1_T3.2_[T9A]_[A10C]] has a Kd of 6.69 nM.

UCUCUUCCUGUAUAUAAUUCUCUU (ssRNA) [Id_ii_S1_P3E.2_K3.1_C3.2_[T-1C]_H3.1_A3.1_F3.1_T3.2_[T9A]_[A10T]] showed a Kd of 5.34 nM.

Binder UCUCUUCCUGUAUAUAUGUCUCUU (ssRNA) [Id_ii_S1_P3E.2_K3.1_C3.2_[T-1C]_H3.1_A3.1_F3.1_T3.2_[A10G]] has a Kd of 7.59 nM.

UCUCUUCCUGUAUAUAUCUCUCUU (ssRNA) [Id_ii_S1_P3E.2_K3.1_C3.2_[T-1C]_H3.1_A3.1_F3.1_T3.2_[A10C]] showed a Kd of 4.74 nM.

UCUCUUCCUGUAUAUAUUUCUCUU (ssRNA) [Id_ii_S1_P3E.2_K3.1_C3.2_[T-1C]_H3.1_A3.1_F3.1_T3.2_[A10T]] gave a Kd of 5.94 nM.

For UCUCUUUGCGUAUUAUCUCUU (ssRNA) [Ib_S1_P4E.1_K4.1_C4.1_H4.1_[T3C]_[A4G]_A4.1_F4.1_T4.1], the Kd was > 2300 nM.

Work on UCUCUUCCUGUAUAUAUAUCUCUU (ssRNA) [Id_ii_S1_P3E.2_K3.1_C3.2_[T-1C]_H3.1_A3.1_F3.1_T3.2] yielded a Kd of 3.76 nM.

Binder UCUCUUCAUGUAUAUAGCUCUCUU (ssRNA) [Id_ii_S1_P3E.2_K3.1_C3.2_[T-1A]_H3.1_A3.1_F3.1_T3.2_[T9G]_[A10C]] has a Kd of 5.33 nM.

UCUCUUCAUGUAUAUAGUUCUCUU (ssRNA) [Id_ii_S1_P3E.2_K3.1_C3.2_[T-1A]_H3.1_A3.1_F3.1_T3.2_[T9G]_[A10T]] gave a Kd of 5.84 nM.
